These results are taken from paper PMC6317822, “RSM1, an Arabidopsis MYB protein, interacts with HY5/HYH to modulate seed germination and seedling development in response to abscisic acid and salinity” (PLoS Genetics, 2018).

Data set [1] addresses T1, GST-HY5 (ELONGATED HYPOCOTYL 5) (Arabidopsis, UniProt O24646 1-168).
T1 construct: HY5 (ELONGATED HYPOCOTYL 5), bZIP transcription factor, Arabidopsis, At5g11260; the CDS cloned into the EcoRI and XhoI sites of pGEX-4T-1
T1 sequence (looked up): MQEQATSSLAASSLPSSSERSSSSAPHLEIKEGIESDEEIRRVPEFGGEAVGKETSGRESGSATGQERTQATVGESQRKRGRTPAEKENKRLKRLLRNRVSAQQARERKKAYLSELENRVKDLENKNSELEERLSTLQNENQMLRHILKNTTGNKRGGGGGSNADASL
The data set is described as follows: pull-down; 2 ug GST or GST fusion protein mixed with 2 ug His-RSM1 in 500 uL GST binding buffer (50 mM Tris-HCl pH 7.5, 100 mM NaCl, 0.1% Nonidet P-40), Glutathione Sepharose 4B beads, 4 C, 2 h; four washes; immunoblot with anti-GST or anti-His. The note with it: both partners purified.

Data set [2] addresses T2, GST-HYH (Arabidopsis thaliana, UniProt Q8W191 1-149).
T2 sequence: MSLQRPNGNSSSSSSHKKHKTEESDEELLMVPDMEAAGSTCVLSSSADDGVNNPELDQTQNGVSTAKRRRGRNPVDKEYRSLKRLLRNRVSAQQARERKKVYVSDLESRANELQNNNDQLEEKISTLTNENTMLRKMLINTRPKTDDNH
The data set is described as follows: competition; unlabeled competitor vs N1; EMSA: 2 ug protein in 20 uL, 10 mM Tris-HCl pH 7.5, 50 mM KCl, 1 mM DTT, 50 ng/uL poly(dI-dC), 25 C, 20 min; 4-6% native PAGE, 0.5x TBE. The note with it: protein: recombinant; tags: GST (pGEX-4T-1); chain copies: 2; label: unlabeled. (A gel shift assay detects complexes by their altered migration in electrophoresis.)

Data set [3] addresses T3, His-HY5 (Arabidopsis thaliana, UniProt O24646 1-168).
T3 sequence: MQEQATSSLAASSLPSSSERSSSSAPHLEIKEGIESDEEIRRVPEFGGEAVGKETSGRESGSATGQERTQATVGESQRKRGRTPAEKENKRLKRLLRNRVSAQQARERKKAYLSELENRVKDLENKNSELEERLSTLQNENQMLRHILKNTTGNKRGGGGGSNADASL
The data set is described as above. The note with it: protein: recombinant; tags: His; chain copies: 2; label: unlabeled.

For data set [4], the target named is T4, His-RSM1 (Arabidopsis thaliana, UniProt Q9SIJ5 1-101).
T4 sequence: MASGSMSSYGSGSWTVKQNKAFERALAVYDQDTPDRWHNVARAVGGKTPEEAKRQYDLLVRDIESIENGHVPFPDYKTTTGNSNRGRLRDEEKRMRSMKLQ
As to the kind of experiment: EMSA; EMSA: 2 ug protein in 20 uL, 10 mM Tris-HCl pH 7.5, 50 mM KCl, 1 mM DTT, 50 ng/uL poly(dI-dC), 25 C, 20 min; 4-6% native PAGE, 0.5x TBE. The note with it: protein: recombinant, tags: His (pET28a).

For data set [5], the target named is T5, GST-HY5 (Arabidopsis thaliana, UniProt O24646 1-168).
T5 sequence: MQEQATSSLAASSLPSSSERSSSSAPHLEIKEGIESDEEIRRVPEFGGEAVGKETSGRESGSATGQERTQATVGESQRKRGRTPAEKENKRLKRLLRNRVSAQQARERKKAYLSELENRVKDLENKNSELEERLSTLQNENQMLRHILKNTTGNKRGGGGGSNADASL
The data set is described as above. The note with it: protein: recombinant; tags: GST (pGEX-4T-1 in Methods); chain copies: 2; label: biotin 5' on both strands; blunt.

Data set [6] deals with T2, GST-HYH. The data set is described as above. The note with it: protein: recombinant; tags: GST (pGEX-4T-1); chain copies: 2; label: biotin 5'.
Data set [7] has as its target T3, His-HY5. The data set is described as above. The note with it: protein: recombinant; tags: His; chain copies: 2; label: biotin 5'.

B1: His-RSM1 (RADIALIS-LIKE SANT/MYB 1) (natural protein, Arabidopsis, UniProt Q9SIJ5 1-101, looked up)
chain: MASGSMSSYGSGSWTVKQNKAFERALAVYDQDTPDRWHNVARAVGGKTPEEAKRQYDLLVRDIESIENGHVPFPDYKTTTGNSNRGRLRDEEKRMRSMKLQ
notes: the CDS of RSM1 cloned into the BamHI and SacI sites of pET28a; also called MEE3; MATERNAL EFFECT EMBRYO ARREST 3; source: E. coli BL21 (pET28a-RSM1, 1 mM IPTG), purified with Ni-NTA beads
For B1, the binding result in data set [1] is recorded as “binds”.

B2: RSM1 promoter m1 competitor (dsDNA)
DNA 1: GCTGCAAGAATGACGTCATAACCACTAA
DNA 2: TTAGTGGTTATGACGTCATTCTTGCAGC
For the molecule B2, the binding result in data set [2] and in data set [3] was “binds” each time.

B3: RSM1 promoter m3 competitor (dsDNA)
DNA 1: ATCTAGAGAATGACGTCATAACTGTCGG
DNA 2: CCGACAGTTATGACGTCATTCTCTAGAT
On to B3, for which the binding result in data set [2] and in data set [3] was “binds” throughout.

B4: ABI5 promoter probe (HY5 site) (dsDNA)
DNA 1: CCTTATGCAGTGAATAGTCCACGTGCACTCCCAATGGAAGTTCGGAATC
DNA 2: GATTCCGAACTTCCATTGGGAGTGCACGTGGACTATTCACTGCATAAGG
Consider B4, for which the binding result is “no binding” in data set [4] (label: biotin 5' on both strands, blunt) and “binds” in data set [5].

B5: RSM1 promoter C-box probe (WT) (dsDNA)
DNA 1: ATCTAGAGAATGACGTCATAACCACTAA
DNA 2: TTAGTGGTTATGACGTCATTCTCTAGAT
B5: the binding result in data set [6] and in data set [7] was “binds” in each case.

B6: RSM1 promoter P2 (dsDNA)
DNA 1: GTGAGCTTTGTGCTCTGATTAGAGACCAGACTGTTCCATGAATTAAGTAC
DNA 2: GTACTTAATTCATGGAACAGTCTGGTCTCTAATCAGAGCACAAAGCTCAC
In the case of B6, in data set [4] (label: biotin 5'), the binding result is given as “binds”.

B7: RSM1 promoter P1 (dsDNA)
DNA 1: GAGACTTGTCCCTAACTTTCAACCAAAGACTTGTAATTTTCCGCGAGCAC
DNA 2: GTGCTCGCGGAAAATTACAAGTCTTTGGTTGAAAGTTAGGGACAAGTCTC
As for B7, in data set [4] (label: biotin 5'), the binding result was “binds”.

B8: RSM1 promoter m2 competitor (dsDNA)
DNA 1: ATCTAGAGAATAGTACTATAACCACTAA
DNA 2: TTAGTGGTTATAGTACTATTCTCTAGAT
On to B8, for which the binding result in data set [2] and in data set [3] was “no binding” in each case.
